Data published in patent publication US20230192890A1.
Substitutions are numbered along the chain they refer to. Each block holds one binder with its values, some of them ahead of it.

Legend:
[1] = biological target: T1, Ala mutant SEQ ID NO: 27 (human); experiment: ELISA, peptide on plate (10 ug/mL)
T1 sequence (peptide): AENMDDQWMQDEMEIGY

[2] = biological target: T2, Ala mutant SEQ ID NO: 28 (human); experiment: ELISA, peptide on plate (10 ug/mL)
T2 sequence (peptide): EANMDDQWMQDEMEIGY

[3] = biological target: T3, Ala mutant SEQ ID NO: 29 (human); experiment: ELISA, peptide on plate (10 ug/mL)
T3 sequence (peptide): EEAMDDQWMQDEMEIGY

[4] = biological target: T4, Ala mutant SEQ ID NO: 30 (human); experiment: ELISA, peptide on plate (10 ug/mL)
T4 sequence (peptide): EENADDQWMQDEMEIGY

[5] = biological target: T5, Ala mutant SEQ ID NO: 31 (human); experiment: ELISA, peptide on plate (10 ug/mL)
T5 sequence (peptide): EENMADQWMQDEMEIGY

[6] = biological target: T6, Ala mutant SEQ ID NO: 32 (human); experiment: ELISA, peptide on plate (10 ug/mL)
T6 sequence (peptide): EENMDAQWMQDEMEIGY

[7] = biological target: T7, Ala mutant SEQ ID NO: 33 (human); experiment: ELISA, peptide on plate (10 ug/mL)
T7 sequence (peptide): EENMDDAWMQDEMEIGY

[8] = biological target: T8, Ala mutant SEQ ID NO: 36 (human); experiment: ELISA, peptide on plate (10 ug/mL)
T8 sequence (peptide): EENMDDQWMADEMEIGY

[9] = biological target: T9, Ala mutant SEQ ID NO: 37 (human); experiment: ELISA, peptide on plate (10 ug/mL)
T9 sequence (peptide): EENMDDQWMQAEMEIGY

[10] = biological target: T10, Ala mutant SEQ ID NO: 38 (human); experiment: ELISA, peptide on plate (10 ug/mL)
T10 sequence (peptide): EENMDDQWMQDAMEIGY

[11] = biological target: T11, Ala mutant SEQ ID NO: 39 (human); experiment: ELISA, peptide on plate (10 ug/mL)
T11 sequence (peptide): EENMDDQWMQDEAEIGY

[12] = biological target: T12, Ala mutant SEQ ID NO: 40 (human); experiment: ELISA, peptide on plate (10 ug/mL)
T12 sequence (peptide): EENMDDQWMQDEMAIGY

[13] = biological target: T13, Ala mutant SEQ ID NO: 41 (human); experiment: ELISA, peptide on plate (10 ug/mL)
T13 sequence (peptide): EENMDDQWMQDEMEAGY

[14] = biological target: T14, Ala mutant SEQ ID NO: 42 (human); experiment: ELISA, peptide on plate (10 ug/mL)
T14 sequence (peptide): EENMDDQWMQDEMEIAY

[15] = biological target: T15, Ala mutant SEQ ID NO: 43 (human); experiment: ELISA, peptide on plate (10 ug/mL)
T15 sequence (peptide): EENMDDQWMQDEMEIGA

[16] = biological target: T16, Ala mutant having 3-amino acid substitution, SEQ ID NO: 44 (human); experiment: ELISA, peptide on plate (10 ug/mL)
T16 sequence (peptide): AAAMDDQWMQDEMEIGY

[17] = biological target: T17, Ala mutant having 3-amino acid substitution, SEQ ID NO: 47 (human); experiment: ELISA, peptide on plate (10 ug/mL)
T17 sequence (peptide): EENMDDQWMAAAMEIGY

[18] = biological target: T18, Ala mutant having 3-amino acid substitution, SEQ ID NO: 48 (human); experiment: ELISA, peptide on plate (10 ug/mL)
T18 sequence (peptide): EENMDDQWMQDEAAAGY

[19] = biological target: T19, Ala mutant having 3-amino acid substitution, SEQ ID NO: 49 (human); experiment: ELISA, peptide on plate (10 ug/mL)
T19 sequence (peptide): EENMDDQWMQDEMEIAA

[20] = biological target: T20, TA0096 (peptide antigen corresponding to positions 340 to 356 of PAD4) (human); experiment: ELISA, peptide on plate (10 ug/mL)
T20 sequence (peptide): EENMDDQWMQDEMEIGY

[21] = biological target: full-length recombinant mouse PAD4 (mouse) (UniProt Q9Z183); experiment: ELISA, mouse PAD4 on plate, antibody 1 ug/mL
full-length recombinant mouse PAD4 (mouse), sequence (Q9Z183 whole entry): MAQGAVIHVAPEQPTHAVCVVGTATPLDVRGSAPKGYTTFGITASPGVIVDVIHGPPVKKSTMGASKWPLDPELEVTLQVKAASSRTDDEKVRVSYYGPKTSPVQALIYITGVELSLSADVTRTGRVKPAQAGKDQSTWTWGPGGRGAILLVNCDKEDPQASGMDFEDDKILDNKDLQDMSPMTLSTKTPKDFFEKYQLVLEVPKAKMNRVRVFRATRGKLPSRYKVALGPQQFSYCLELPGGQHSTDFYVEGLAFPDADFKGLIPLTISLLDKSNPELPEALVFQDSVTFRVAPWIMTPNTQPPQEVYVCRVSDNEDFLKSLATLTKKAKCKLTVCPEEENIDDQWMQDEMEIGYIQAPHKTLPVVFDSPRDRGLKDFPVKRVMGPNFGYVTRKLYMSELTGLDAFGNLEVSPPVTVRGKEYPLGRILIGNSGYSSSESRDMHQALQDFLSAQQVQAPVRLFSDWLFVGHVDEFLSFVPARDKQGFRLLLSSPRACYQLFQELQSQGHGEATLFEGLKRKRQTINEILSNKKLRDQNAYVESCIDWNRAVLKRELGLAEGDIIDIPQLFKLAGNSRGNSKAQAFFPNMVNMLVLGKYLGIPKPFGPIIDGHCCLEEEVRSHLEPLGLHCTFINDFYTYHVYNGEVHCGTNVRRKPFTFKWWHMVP

[22] = biological target: full-length recombinant mouse PAD4 (mouse) (UniProt Q9Z183); experiment: ELISA, mouse PAD4 on plate, antibody 0.25 ug/mL
[23] = biological target: full-length recombinant mouse PAD4 (mouse) (UniProt Q9Z183); experiment: ELISA, mouse PAD4 on plate, antibody 0.0625 ug/mL
[24] = biological target: full-length recombinant mouse PAD4 (mouse) (UniProt Q9Z183); experiment: ELISA, mouse PAD4 on plate, antibody 0.015625 ug/mL
[25] = biological target: full-length recombinant mouse PAD4 (mouse) (UniProt Q9Z183); experiment: ELISA, mouse PAD4 on plate, antibody 0.0002441 ug/mL
[26] = biological target: full-length recombinant mouse PAD4 (mouse) (UniProt Q9Z183); experiment: ELISA, mouse PAD4 on plate, antibody 0.0009766 ug/mL
[27] = biological target: full-length recombinant mouse PAD4 (mouse) (UniProt Q9Z183); experiment: ELISA, mouse PAD4 on plate, antibody 0.0039063 ug/mL
[28] = biological target: full-length recombinant mouse PAD4 (mouse) (UniProt Q9Z183); experiment: ELISA, mouse PAD4 on plate, antibody 6.104E-05 ug/mL

- absorbance 490 nm/630 nm [1]: 1.95 OD
- absorbance 490 nm/630 nm [2]: 2 OD
- absorbance 490 nm/630 nm [3]: 2.05 OD
- absorbance 490 nm/630 nm [4]: 2.03 OD
- absorbance 490 nm/630 nm [5]: 1.67 OD
- absorbance 490 nm/630 nm [6]: 0.628 OD
- absorbance 490 nm/630 nm [7]: 2.09 OD
- absorbance 490 nm/630 nm [8]: 1.91 OD
- absorbance 490 nm/630 nm [9]: 1.8 OD
- absorbance 490 nm/630 nm [10]: 1.89 OD
- absorbance 490 nm/630 nm [11]: 1.89 OD
- absorbance 490 nm/630 nm [12]: 1.85 OD
- absorbance 490 nm/630 nm [13]: 1.85 OD
- absorbance 490 nm/630 nm [14]: 1.88 OD
- absorbance 490 nm/630 nm [15]: 1.92 OD
- absorbance 490 nm/630 nm [16]: 1.98 OD
- absorbance 490 nm/630 nm [17]: 1.25 OD
- absorbance 490 nm/630 nm [18]: 1.87 OD
- absorbance 490 nm/630 nm [19]: 1.89 OD
- absorbance 490 nm/630 nm [20]: 1.81 OD
- absorbance 490 nm/630 nm [21]: 2.24 OD
- absorbance 490 nm/630 nm [22]: 2.25 OD
- absorbance 490 nm/630 nm [23]: 2.24 OD
- absorbance 490 nm/630 nm [24]: 2.02 OD
- absorbance 490 nm/630 nm [25]: 0.152 OD
- absorbance 490 nm/630 nm [26]: 0.386 OD
- absorbance 490 nm/630 nm [27]: 1.07 OD
- absorbance 490 nm/630 nm [28]: 0.045 OD
B1: A11 (antibody, IgG1, V domains shown)
VH: AVTLDESGGGLQTPGGALSLVCKASGFDFSSYGMGWMRQAPGKGLEYVAAIRNDGSWTGYGAAVKGHATISRDNGQSTVRLQLNNLRAEDTGTYYCAKTTGSRGGSIDAWGHGTEVIVS
VL: ASTQPSSVSANLGGTVEITCSGGGRYYYGWYQQKSPGSAPVTVIYANDKRPSDIPSRFSGSKSGSTGTLTITGVQAEDEAVYFCGSAETSSYVFGAGTTLTVL

- absorbance 490 nm/630 nm [1]: 1.89 OD
- absorbance 490 nm/630 nm [2]: 2 OD
- absorbance 490 nm/630 nm [3]: 1.92 OD
- absorbance 490 nm/630 nm [4]: 1.91 OD
- absorbance 490 nm/630 nm [5]: 1.38 OD
- absorbance 490 nm/630 nm [6]: 0.177 OD
- absorbance 490 nm/630 nm [7]: 1.93 OD
- absorbance 490 nm/630 nm [8]: 1.9 OD
- absorbance 490 nm/630 nm [9]: 1.2 OD
- absorbance 490 nm/630 nm [10]: 1.91 OD
- absorbance 490 nm/630 nm [11]: 1.77 OD
- absorbance 490 nm/630 nm [12]: 1.82 OD
- absorbance 490 nm/630 nm [13]: 1.8 OD
- absorbance 490 nm/630 nm [14]: 1.83 OD
- absorbance 490 nm/630 nm [15]: 1.88 OD
- absorbance 490 nm/630 nm [16]: 1.9 OD
- absorbance 490 nm/630 nm [17]: 1.34 OD
- absorbance 490 nm/630 nm [18]: 1.81 OD
- absorbance 490 nm/630 nm [19]: 1.85 OD
- absorbance 490 nm/630 nm [20]: 1.79 OD
- absorbance 490 nm/630 nm [21]: 2.23 OD
- absorbance 490 nm/630 nm [22]: 2.23 OD
- absorbance 490 nm/630 nm [23]: 2.19 OD
- absorbance 490 nm/630 nm [24]: 1.86 OD
- absorbance 490 nm/630 nm [25]: 0.122 OD
- absorbance 490 nm/630 nm [26]: 0.416 OD
- absorbance 490 nm/630 nm [27]: 0.956 OD
- absorbance 490 nm/630 nm [28]: 0.051 OD
B2: E9 (antibody, IgG1, V domains shown)
VH: B1 VH with A17T, A24G, D28T, A62S, H67R, G92A, T100S, R103S, I107V
VL: B1 VL

- absorbance 490 nm/630 nm [1]: 1.91 OD
- absorbance 490 nm/630 nm [2]: 1.99 OD
- absorbance 490 nm/630 nm [3]: 1.95 OD
- absorbance 490 nm/630 nm [4]: 1.92 OD
- absorbance 490 nm/630 nm [5]: 1.77 OD
- absorbance 490 nm/630 nm [7]: 1.98 OD
- absorbance 490 nm/630 nm [8]: 1.85 OD
- absorbance 490 nm/630 nm [9]: 1.85 OD
- absorbance 490 nm/630 nm [10]: 1.92 OD
- absorbance 490 nm/630 nm [11]: 1.83 OD
- absorbance 490 nm/630 nm [12]: 1.86 OD
- absorbance 490 nm/630 nm [13]: 1.87 OD
- absorbance 490 nm/630 nm [14]: 1.87 OD
- absorbance 490 nm/630 nm [15]: 1.87 OD
- absorbance 490 nm/630 nm [16]: 1.92 OD
- absorbance 490 nm/630 nm [17]: 1.73 OD
- absorbance 490 nm/630 nm [18]: 1.85 OD
- absorbance 490 nm/630 nm [19]: 1.88 OD
- absorbance 490 nm/630 nm [20]: 1.87 OD
- absorbance 490 nm/630 nm [21]: 2.27 OD
- absorbance 490 nm/630 nm [22]: 2.27 OD
- absorbance 490 nm/630 nm [23]: 2.16 OD
- absorbance 490 nm/630 nm [24]: 1.35 OD
- absorbance 490 nm/630 nm [25]: 0.071 OD
- absorbance 490 nm/630 nm [26]: 0.2 OD
- absorbance 490 nm/630 nm [27]: 0.55 OD
- absorbance 490 nm/630 nm [28]: 0.044 OD
B3: G6 (antibody, IgG1, V domains shown)
VH: B1 VH with D28T, G35E, M37V, H67R, N74D, V79L, G92A, R103S
VL: B1 VL with G14E, E17K, R25N, V43L, D53N, S86T, E88D, S90G, S91K
